According to patent publication US20200347131A1 (SICHUAN KELUN BIOTECH BIOPHARMACEUTICAL, published 2020):
Numbering of substitutions follows the chain as printed.

Columns and labels:
[1] = target: T1, LAG-3-Tag1 of the LAG-3/MHC II kit (CISBIO, ADK000CLAPEF) (human, UniProt P18627 23-450); test: HTRF competition, antibody blocks the binding of LAG-3-Tag1 to MHC II-Tag2 (CISBIO kit)
T1 construct: Kit reagent; The construct is not described
Protocol: Anti-Tag1-Eu³⁺ is a donor of HTRF (Homogeneous Time-Resolved Fluorescence), and anti-Tag2-XL665 acts as a receptor for HTRF. When the two molecules are close to each other, the fluorescence energy is transferred from the donor to the acceptor, accompanied by appearance of a fluorescent signal at 650 nm.
After mixing the anti-Tag1-Eu³⁺ and anti-Tag2-XL665 in equal volumes, each well was added with 10 μl, mixed well, sealed with a film, and incubated for 1 hour at room temperature.

[2] = target: T2, human LAG-3 (His tag) (human, UniProt P18627 23-450, limits assumed); test: BLI (ForteBio Octet), LAG-3 His on Ni-NTA sensor
T2 construct: also called LAG-3-His antigen; not shown: His tag
T2 sequence (looked up): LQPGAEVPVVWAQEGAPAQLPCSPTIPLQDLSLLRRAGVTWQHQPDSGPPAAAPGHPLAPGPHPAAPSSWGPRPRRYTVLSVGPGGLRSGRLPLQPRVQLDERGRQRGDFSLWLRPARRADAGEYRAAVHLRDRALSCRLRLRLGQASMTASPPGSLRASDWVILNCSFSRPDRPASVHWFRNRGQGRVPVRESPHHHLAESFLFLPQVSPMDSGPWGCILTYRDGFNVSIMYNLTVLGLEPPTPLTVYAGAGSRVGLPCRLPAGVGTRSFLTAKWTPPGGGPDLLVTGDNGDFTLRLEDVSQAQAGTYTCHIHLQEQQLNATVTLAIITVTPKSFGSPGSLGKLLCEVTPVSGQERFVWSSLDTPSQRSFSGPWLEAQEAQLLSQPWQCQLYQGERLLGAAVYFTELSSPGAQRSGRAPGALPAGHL
Protocol: (§1) The binding affinity constant of the purified murine monoclonal antibody #27 to the antigen was determined by Bio-Layer Interferometry (BLI) using the instrument of a PALL company's ForteBio Octet RED & QK system.

[3] = target: T3, cynomolgus monkey LAG-3 on CHO cells (CHO-cynoLAG-3) (cynomolgus monkey); test: flow cytometry, FITC-labelled antibody on CHO-cynoLAG-3 cells
T3 construct: whole, on cells; Cells prepared by Kelun Biotech Co., Ltd
Protocol: (§2) 5×10⁵ cells per tube of CHO-cynoLAG-3 and CHO-hLAG-3 cells were taken respectively. […] The dilutions were mixed with cells at a ratio of 1:1, and incubated for 30 minutes at room temperature, followed by washing 3 times with pre-cooled PBS and detection by flow cytometry (Benckman, model CytoFlex). The signal values were input into GraphPad Prism to calculate the EC₅₀ values.

[4] = target: T4, human LAG-3 on CHO cells (CHO-hLAG-3) (human, UniProt P18627 23-525); test: flow cytometry, FITC-labelled antibody on CHO-hLAG-3 cells
T4 construct: whole, on cells; Cells prepared by Kelun Biotech Co., Ltd; also called CHO cells expressing human LAG-3
T4 sequence (looked up): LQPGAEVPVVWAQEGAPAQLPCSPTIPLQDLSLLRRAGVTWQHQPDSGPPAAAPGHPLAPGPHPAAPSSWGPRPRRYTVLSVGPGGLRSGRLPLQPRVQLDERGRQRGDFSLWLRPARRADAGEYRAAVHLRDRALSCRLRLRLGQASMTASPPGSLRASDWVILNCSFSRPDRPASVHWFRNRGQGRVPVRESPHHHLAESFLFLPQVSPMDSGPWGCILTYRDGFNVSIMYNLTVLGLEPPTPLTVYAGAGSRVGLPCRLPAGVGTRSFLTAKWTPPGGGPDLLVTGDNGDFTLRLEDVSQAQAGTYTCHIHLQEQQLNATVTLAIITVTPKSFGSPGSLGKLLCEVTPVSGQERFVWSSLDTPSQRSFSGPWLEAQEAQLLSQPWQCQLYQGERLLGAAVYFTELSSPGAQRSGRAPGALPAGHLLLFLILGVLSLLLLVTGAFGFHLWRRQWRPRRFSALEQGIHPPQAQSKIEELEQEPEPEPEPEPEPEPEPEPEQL
Protocol: as §2

[5] = target: T2, human LAG-3 (His tag); test: FACS competition, antibody blocks the binding of LAG-3-His (12 ug/mL) to MHC II positive A431 cells
Protocol: Human epidermal cancer cell line A431 (purchased from Nanjing Cobioer Company) is an MHC II positive expression cell line. […] The method was also used to evaluate the biological activity of relevant antibodies.
A431 cells were trypsinized, resuspended in PBS, and the cell density was adjusted to 5×10⁶ cells/mL, 100 μL/well. […] The cells were washed twice with pre-cooled PBS, resuspended in 100 µL of solution containing […] of PE anti-His, and incubated at 4° C. for 0.5 hours, washed twice with pre-cooled PBS, and resuspended in PBS.

[6] = target: T5, human LAG-3 (Uniport entry No. P18627) (human, UniProt P18627 23-450, limits assumed); test: indirect ELISA on plate-coated human LAG-3 (0.1 ug/ml), HRP goat anti-mouse IgG detection
T5 sequence (looked up): T2 sequence (looked up)

[7] = target: T2, human LAG-3 (His tag); test: BLI (ForteBio Octet), LAG-3 His on Ni-NTA sensor, antibody 3.125-100 nM
Protocol: as §1

B1: humanized antibody AB12T3 (antibody, human IgG4, kappa, V domains shown)
VH: DVQLQESGPGLVKPSQTLSLTCTVTGYSITSFYSWHWIRQHPGKGLEWMGCIQYSGDTDSNPSLKSRITITRDTSENQLSLKLSSVTAADTAVYYCARSPYDSDPYYVMDYWGQGTLVTVSS
VL: DIVMSQSPDSLAVSLGERATITCKSSQSLLYSGNQKNYLAWYQQKPGQPPTLLIYWASTRDSGVPDRLTGSGSGTDFTLTISSLQAEDVAVYYCQQYYAYPYTFGQGTKLEIKR
IC50 [1]: 9.45 µg/mL
Kd [2]: 0.546 nM
koff [2]: 5.17e-05 s⁻¹
kon [2]: 94700 M⁻¹ s⁻¹

B2: humanized antibody AB12T5 (antibody, human IgG4, kappa, V domains shown)
VH: B1 VH with D1Q, T25S, M49I, I68V, T71S, R72V, E76K, L79F, L117S
VL: B1 VL with S5T, T51K, L68F, T69S, Q106G
Kd [2]: 0.365 nM
koff [2]: 2.28e-05 s⁻¹
kon [2]: 92400 M⁻¹ s⁻¹

B3: humanized antibody AB12T4 (antibody, human IgG4 S228P, kappa, V domains shown)
VH: B1 VH with H41F, S80F, V93T
VL: B1 VL with A19I, I21M, P49S, L84V
notes: also called FITC-AB12T4
EC50 [3]: 803 nM
EC50 [4]: 12.8 nM
IC50 [5]: 12.7 nM
Maximum inhibition % [5]: 89.3%
IC50 [1]: 6.7 µg/mL
Kd [2]: 0.258 nM
koff [2]: 3.09e-05 s⁻¹
kon [2]: 120000 M⁻¹ s⁻¹

B4: humanized antibody AB12T7 (antibody, human IgG4, kappa, V domains shown)
VH: QVQLQESGPGLVKPSQTLSLTCTVSGYSITSFYSWSWIRQHPGKGLEWIGYIQYSGDTYYNPSLKSRVTISVDTSKNQFSLKLSSVTAADTAVYYCARSPYDSDPYYVMDYWGQGTLVTVSS
VL: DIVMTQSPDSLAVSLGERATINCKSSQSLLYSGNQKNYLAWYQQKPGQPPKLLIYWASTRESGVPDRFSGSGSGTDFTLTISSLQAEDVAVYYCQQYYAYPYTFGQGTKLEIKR
Kd [2]: 0.359 nM
koff [2]: 2.36e-05 s⁻¹
kon [2]: 65800 M⁻¹ s⁻¹

B5: humanized antibody AB12T6 (antibody, human IgG4, kappa, V domains shown)
VH: B4 VH with Q1D, T17S, S36H, I49M, Y51C
VL: B1 VL with T51K, L68F, T69S, Q106G, I112T
Kd [2]: 0.378 nM

B6: reference antibody AB12T1 (BMS 986016) (antibody, human IgG4 S228P, kappa, V domains shown)
VH: QVQLQQWGAGLLKPSETLSLTCAVYGGSFSDYYWNWIRQPPGKGLEWIGEINHRGSTNSNPSLKSRVTLSLDTSKNQFSLKLRSVTAADTAVYYCAFGYSDYEYNWFDPWGQGTLVTVSS
VL: EIVLTQSPATLSLSPGERATLSCRASQSISSYLAWYQQKPGQAPRLLIYDASNRATGIPARFSGSGSGTDFTLTISSLEPEDFAVYYCQQRSNWPLTFGQGTNLEIKR
notes: also called positive control antibody AB; FITC-AB12T1
EC50 [3]: 793 nM

B7: murine monoclonal antibody #27 (antibody, IgG4, V domains shown)
VH: DVHLQESGPDLVKPSQSLSLTCTVTGYSITSFYSWHWIRQFPGNKLEWMGCIQYSGDTDSNPSLKSRISITRDTSENQLFLHLNSVTTEDTATYYCARSPYDSDPYYVMDYWGQGTSVTVSS
VL: DIVMSQSPSSLAVSVGEKITMTCKSSQSLLYSGNQKNYLAWYQQKPGQSPTLLIYWASTRDSGVPDRLTGSGSGTDFTLTISSVKAEDLAVYYCQQYYAYPYTFGGGTKLETK
notes: Purified from hybridoma supernatant; also called murine antibody #27; monoclonal antibody produced by hybridoma cell line #27 (CCTCC NO.C2017183)
EC50 (read off the curve) [6]: ~0.05 µg/mL
IC50 [5]: 10.4 nM
Maximum inhibition % [5]: 84.2%
Kd [7]: 0.319 nM
koff [7]: 3.86e-05 s⁻¹
kon [7]: 121000 M⁻¹ s⁻¹
Kd [2]: 0.319 nM
koff [2]: 3.86e-05 s⁻¹
kon [2]: 121000 M⁻¹ s⁻¹

B8: human-mouse chimeric antibody AB12T2 (antibody, human IgG4 S228P, kappa, V domains shown)
VH: B7 VH
VL: DIVMSQSPSSLAVSVGEKITMTCKSSQSLLYSGNQKNYLAWYQQKPGQSPTLLIYWASTRDSGVPDRLTGSGSGTDFTLTISSVKAEDLAVYYCQQYYAYPYTFGGGTKLETKR
Kd [2]: 0.574 nM
koff [2]: 4.97e-05 s⁻¹
kon [2]: 100000 M⁻¹ s⁻¹
